IntAct's records for PubMed 12006496

B1: Phytochrome A (Arabidopsis thaliana (Mouse-ear cress)), P14712 (parent)
chain: MSGSRPTQSSEGSRRSRHSARIIAQTTVDAKLHADFEESGSSFDYSTSVRVTGPVVENQPPRSDKVTTTYLHHIQKGKLIQPFGCLLALDEKTFKVIAYSENASELLTMASHAVPSVGEHPVLGIGTDIRSLFTAPSASALQKALGFGDVSLLNPILVHCRTSAKPFYAIIHRVTGSIIIDFEPVKPYEVPMTAAGALQSYKLAAKAITRLQSLPSGSMERLCDTMVQEVFELTGYDRVMAYKFHEDDHGEVVSEVTKPGLEPYLGLHYPATDIPQAARFLFMKNKVRMIVDCNAKHARVLQDEKLSFDLTLCGSTLRAPHSCHLQYMANMDSIASLVMAVVVNEEDGEGDAPDATTQPQKRKRLWGLVVCHNTTPRFVPFPLRYACEFLAQVFAIHVNKEVELDNQMVEKNILRTQTLLCDMLMRDAPLGIVSQSPNIMDLVKCDGAALLYKDKIWKLGTTPSEFHLQEIASWLCEYHMDSTGLSTDSLHDAGFPRALSLGDSVCGMAAVRISSKDMIFWFRSHTAGEVRWGGAKHDPDDRDDARRMHPRSSFKAFLEVVKTRSLPWKDYEMDAIHSLQLILRNAFKDSETTDVNTKVIYSKLNDLKIDGIQELEAVTSEMVRLIETATVPILAVDSDGLVNGWNTKIAELTGLSVDEAIGKHFLTLVEDSSVEIVKRMLENALEGTEEQNVQFEIKTHLSRADAGPISLVVNACASRDLHENVVGVCFVAHDLTGQKTVMDKFTRIEGDYKAIIQNPNPLIPPIFGTDEFGWCTEWNPAMSKLTGLKREEVIDKMLLGEVFGTQKSCCRLKNQEAFVNLGIVLNNAVTSQDPEKVSFAFFTRGGKYVECLLCVSKKLDREGVVTGVFCFLQLASHELQQALHVQRLAERTAVKRLKALAYIKRQIRNPLSGIMFTRKMIEGTELGPEQRRILQTSALCQKQLSKILDDSDLESIIEGCLDLEMKEFTLNEVLTASTSQVMMKSNGKSVRITNETGEEVMSDTLYGDSIRLQQVLADFMLMAVNFTPSGGQLTVSASLRKDQLGRSVHLANLEIRLTHTGAGIPEFLLNQMFGTEEDVSEEGLSLMVSRKLVKLMNGDVQYLRQAGKSSFIITAELAAANK
partner: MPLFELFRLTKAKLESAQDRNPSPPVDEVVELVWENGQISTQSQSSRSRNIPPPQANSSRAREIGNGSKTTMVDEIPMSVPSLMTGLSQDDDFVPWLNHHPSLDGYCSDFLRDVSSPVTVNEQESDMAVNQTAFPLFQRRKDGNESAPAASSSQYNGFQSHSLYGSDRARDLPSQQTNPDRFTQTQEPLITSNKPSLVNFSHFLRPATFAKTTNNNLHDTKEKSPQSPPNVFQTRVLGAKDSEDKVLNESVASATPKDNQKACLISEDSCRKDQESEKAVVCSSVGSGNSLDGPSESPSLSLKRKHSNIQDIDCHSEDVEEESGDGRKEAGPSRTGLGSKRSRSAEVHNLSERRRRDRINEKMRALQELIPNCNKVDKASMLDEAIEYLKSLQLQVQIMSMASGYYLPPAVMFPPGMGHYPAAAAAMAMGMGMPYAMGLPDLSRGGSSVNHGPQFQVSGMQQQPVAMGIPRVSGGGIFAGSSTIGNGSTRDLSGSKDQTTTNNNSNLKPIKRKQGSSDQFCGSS
B2: Phytochrome B (Arabidopsis thaliana (Mouse-ear cress)), P14713 (parent)
chain: MVSGVGGSGGGRGGGRGGEEEPSSSHTPNNRRGGEQAQSSGTKSLRPRSNTESMSKAIQQYTVDARLHAVFEQSGESGKSFDYSQSLKTTTYGSSVPEQQITAYLSRIQRGGYIQPFGCMIAVDESSFRIIGYSENAREMLGIMPQSVPTLEKPEILAMGTDVRSLFTSSSSILLERAFVAREITLLNPVWIHSKNTGKPFYAILHRIDVGVVIDLEPARTEDPALSIAGAVQSQKLAVRAISQLQALPGGDIKLLCDTVVESVRDLTGYDRVMVYKFHEDEHGEVVAESKRDDLEPYIGLHYPATDIPQASRFLFKQNRVRMIVDCNATPVLVVQDDRLTQSMCLVGSTLRAPHGCHSQYMANMGSIASLAMAVIINGNEDDGSNVASGRSSMRLWGLVVCHHTSSRCIPFPLRYACEFLMQAFGLQLNMELQLALQMSEKRVLRTQTLLCDMLLRDSPAGIVTQSPSIMDLVKCDGAAFLYHGKYYPLGVAPSEVQIKDVVEWLLANHADSTGLSTDSLGDAGYPGAAALGDAVCGMAVAYITKRDFLFWFRSHTAKEIKWGGAKHHPEDKDDGQRMHPRSSFQAFLEVVKSRSQPWETAEMDAIHSLQLILRDSFKESEAAMNSKVVDGVVQPCRDMAGEQGIDELGAVAREMVRLIETATVPIFAVDAGGCINGWNAKIAELTGLSVEEAMGKSLVSDLIYKENEATVNKLLSRALRGDEEKNVEVKLKTFSPELQGKAVFVVVNACSSKDYLNNIVGVCFVGQDVTSQKIVMDKFINIQGDYKAIVHSPNPLIPPIFAADENTCCLEWNMAMEKLTGWSRSEVIGKMIVGEVFGSCCMLKGPDALTKFMIVLHNAIGGQDTDKFPFPFFDRNGKFVQALLTANKRVSLEGKVIGAFCFLQIPSPELQQALAVQRRQDTECFTKAKELAYICQVIKNPLSGMRFANSLLEATDLNEDQKQLLETSVSCEKQISRIVGDMDLESIEDGSFVLKREEFFLGSVINAIVSQAMFLLRDRGLQLIRDIPEEIKSIEVFGDQIRIQQLLAEFLLSIIRYAPSQEWVEIHLSQLSKQMADGFAAIRTEFRMACPGEGLPPELVRDMFHSSRWTSPEGLGLSVCRKILKLMNGEVQYIRESERSYFLIILELPVPRKRPLSTASGSGDMMLMMPY
partner: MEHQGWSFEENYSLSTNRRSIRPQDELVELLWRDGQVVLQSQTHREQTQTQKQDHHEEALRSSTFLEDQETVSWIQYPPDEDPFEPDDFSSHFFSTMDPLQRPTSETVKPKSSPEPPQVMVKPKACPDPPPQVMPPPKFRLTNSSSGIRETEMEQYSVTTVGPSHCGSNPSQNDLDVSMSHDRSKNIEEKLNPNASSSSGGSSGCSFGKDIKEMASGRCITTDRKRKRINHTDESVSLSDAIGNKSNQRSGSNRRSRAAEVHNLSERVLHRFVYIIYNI
B3: Phytochrome A (Arabidopsis thaliana (Mouse-ear cress)), P14712 (parent)
chain: B1 chain
partner: B2 partner
B4: Phytochrome B (Arabidopsis thaliana (Mouse-ear cress)), P14713 (parent)
chain: B2 chain
partner: B1 partner

Variants of: B1
Conditions: with pif3_arath PIF3, O80536

Row | effect of a mutation on the interaction | Variant
1 | decreasing interaction | G750E
2 | decreasing interaction | A715V

Variants of: B2
Conditions: with PIF4, Q8W2F3-2

Row | effect of a mutation on the interaction | Variant
3 | decreasing interaction | G767R

Variants of: B3
Conditions: with PIF4, Q8W2F3-2

Row | effect of a mutation on the interaction | Variant
4 | decreasing interaction | A715V
5 | decreasing interaction | G787E

Variants of: B4
Conditions: with pif3_arath PIF3, O80536

Row | effect of a mutation on the interaction | Variant
6 | decreasing interaction | G767R
